Columns and labels:
XIAP [1] = biological target: T1, XIAP (Homo sapiens, UniProt P98170); experiment: In vitro XIAP self-conjugation assay; format: biochemical
T1 construct: Full length xiap was amplified by PCR and subcloned into the EcoRI, ApaI site of this pcDNA3; made in house; host or cells: in vitro transcription-translation system (Promega); UBCH5C from E. coli BL21 (pLysS)
Experimental: IAP-E2 Binding Assay for Measuring Self-Conjugation
^35S-methionine labeled DIAP1 or XIAP was generated in an in vitro transcription-translation system (Promega) from diap1-pET14b and xiap-pcDNA3.1 respectively. For purification of His-UBCD1 and His-UBCH5C, ubcD1-pET14b and ubcH5C-pT7-7 were expressed in BL21 (pLysS) and purfied on a Ni-column according to the manufacturer's protocol (Novagen). ^35S-DIAP1 or ^35S-XIAP was incubated with purified UBCD1 or UBCH5C respectively in the absence or presence of the W-7, H2-9 or H2-9W7 peptides. Following incubation of 15 min in room temperature in 20 mM Tris pH7.6, 2 mM DTr, Ni-NTA Agarose beads (Qiagen) were added for additional 30 minutes. The beads were subsequently washed four times with the Tis/DTT buffer, eluted with Laemli buffer and subjected to 10% SDS-PAGE. ^35S-DIAP1 or ^35S-XIAP was visualized by Phosphorimaging.
^35S-methionine labeled mutant and wild type DIAP1, or wild type XIAP were generated in an in vitro transcription-translation system (Promega) from diap1-pET14b, diap1^21-4S pET14b and xiap pcDNA3.1 plasmids. For purification of His-UBCD1 and His-UBCH5C, ubcD1-pET14b and ubcH5C-pT7-7 were expressed in BL21 (pLysS) and purified on a Ni-column according to the manufacturer's protocol (Novagen). […]

[2] = biological target: DIAP1 (Drosophila IAP1), wild type, 35S-methionine labeled, in vitro translated from diap1-pET14b (UniProt Q24306)
[3] = biological target: His-DIAP1 21-4S mutant (RING domain mutant, Cys 406 to Tyr), 35S-methionine labeled, in vitro translated from diap1 21-4S pET14b (UniProt Q24306)
Diap1 in Cos-7 cells = biological target: T2, Diap1 in Cos-7 cells (Drosophila melanogaster, UniProt Q24306); experiment: Cellular stability of DIAP1 (cycloheximide chase, Western blot); format: cell-based; settings: Cos-7 cells co-transfected with Diap1-Flag and RPR-HA, cycloheximide 30 minute chase
T2 construct: expressed in transfected cells; host or cells: Cos-7
T2 sequence (Q24306 1-438): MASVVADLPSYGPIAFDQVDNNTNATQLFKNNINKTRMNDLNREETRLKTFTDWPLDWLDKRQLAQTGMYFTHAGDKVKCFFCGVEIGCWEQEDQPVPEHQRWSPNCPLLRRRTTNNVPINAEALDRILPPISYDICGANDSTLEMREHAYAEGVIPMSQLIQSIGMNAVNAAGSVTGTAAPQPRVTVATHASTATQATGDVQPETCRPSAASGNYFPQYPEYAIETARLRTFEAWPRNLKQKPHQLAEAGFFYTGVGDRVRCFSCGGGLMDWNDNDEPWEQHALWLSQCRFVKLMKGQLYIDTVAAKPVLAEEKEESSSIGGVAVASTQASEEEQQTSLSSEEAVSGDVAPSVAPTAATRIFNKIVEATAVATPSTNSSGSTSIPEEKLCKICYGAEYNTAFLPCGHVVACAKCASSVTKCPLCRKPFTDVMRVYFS
Experimental: Cellular Stability of DIAP1
Cos-7 cells were transfected with 1 μg of wild-type (wt) Diap1-Flag-pcDNA3 along with 1 μg RPR-HA-pcDNA3 or 1 μg pcDNA3 vector (to maintain an equal amount of DNA in all transfections). Transfections were carried out by using FuGene™. 30 h aer transfection, 100 μg cycloheximide (Sigma) was added to each 60 mm dish for 0, 30, 60 min. Cells were harvested and lysed. Equal amount of protein were resolved via SDS-PAGE (10%) and blotted onto riocellulose paper. Diap1 was monitored by Western blot analysis using anti-Diap1 antibody and ECL.
In order to determine the effect of the IAP inhibitor (IAPi), Reaper's expression on IAP protein stability, a pulse-chase experiment was conducted using Cos-7 cells co-transfected with Diap1-Flag-pcDNA3 and RPR-HA-pcDNA3 or pcDNA3 vector alone treated with cycloheximide for 0, 30 or 60 minutes, followed by cell lysis, and immunoblot analysis.

DIAP1 [4] = experiment: Ectopic expression (Gal4/UAS) in Drosophila imaginal discs and embryos, anti-DIAP1 labeling; format: in vivo
Source text: Mitotic recombination was induced in the developing eye imaginal discs using the Flp-FRT method36 and ey-flipase. Gal4/UAS system was used for ectopic expression.
GST-DIAP16 was expressed in BL21 (pLysS) bacteria, and was gel purified before immunizing rabbits (Cocalico Biologicals). diap1(WT)-pET14b was used to express His-DIAP1 in BL21(pLysS) and was purified according to the manufacturer's protocol (Novagen) and immobilized on nitrocellulose paper to affinity purify anti-DIAP1 antisera Rabbit anti-β-galactosidase antibody (Cappel, ICN), mouse-anti-β-gatosdase antibody (Sigma), monoclonal anti-Engrailed antibody (Developmental Studies Hybridoma Bank), Rabbit CM1 antibody24 and mouse anti-HA antibody (Babco) were used to stain embryos and imaginal discs under standard conditions. For western blots, 6-18 h hour embryos were homogenized in the lysis buffer (20 mM Tris pH 7.5, 100 mM NaCl, 1% NP-40, 2 mM DTT) and the cell debns was spun down. The supernatant was run on 15% SDS-PAGE gels, transferred to nitrocellulose sheets and probed with Rabbit anti-DIAP1 antibody. Western blot was detected with ECL (Amersham).
IAP degradation in thymocytes is a regulated process, wherein glucocorticoids can trigger IAP degradation by unknown mechanisms. To determine whether DIAP1 degradation is also regulated in Drosophila, we co-expressed the cell death promoting protein RPR and the baculovirus p35 caspase inhibitor^21 in the wing imaginal disc posterior compartment using the engrailed (en)-Gal4 driner^22. Expression of p35 prevented RPR-expressing cells from dying, and the resulting cell population not undergoing apoptosis enabled us to observe cellular changes downstream of RPR. Whereas animals expressing RPR alone died as embryos, those compressing RPR and p35 survived to adulthood with wings indistinguishable from wild type (FIG. 2a). […] The wing imaginal discs were also labeled with CM1 antibody, which detects activated caspase-3 in humans and cross-reacts with activated caspases in Drosophila^23,24. In the control anterior compartment, sporadic apoptotic cells were intensely labeled with CM1.
Thus, the effect of the RING finger mutations on RPR-dependent DIAP1 degradation in embryos was determined. The protein distribution of DIAP1 was analyzed in embryos that express RPR under the prd-Gal4 driver (FIG. 3a, c). In wild type embryos, DIAP1 is homogenously distributed (FIG. 3b).

XIAP [5] = biological target: T1, XIAP; experiment: In vitro ubiquitination reaction of 35S-XIAP; format: biochemical
Experimental: (§1) In Vitro Ubiquitination Reaction
^35S-methionine labeled mutant and wild type DIAP1, or wild type XIAP were generated in an in vitro transcription-translation system (Promega) from diap1-pET14b, diap1^21-4S pET14b and xiap pcDNA3.1 plasmids. For purification of His-UBCD1 and His-UBCH5C, ubcD1-pET14b and ubcH5C-pT7-7 were expressed in BL21 (pLysS) and purified on a Ni-column according to the manufacturer's protocol (Novagen). In vitro ubiquitination assays were carried out in a total volume of 12.5 μl and contained: ^35S-methionine labeled wild type or mutant DIAP1 or Wild type XIAP (approximately 10,000 cpm), and 250 ng E1 (made in baculovirus; vector is the kind gift of Dr. Kaznbiro Iwai, University of Osaka, Osaka Japan). Unless otherwise stated, 1.2 μg His-UBCD1 or His-UBCH5C was used in each reaction Reaction mire contained also 40 mM Tris-HCl, pH 7.6, 5 mM MgCl2, 1 mM DTT, 5 μg ubiquitin, 100 ng Ubiquitin-aldehyde, 2 mM ATPγS [Adenosine 5′-O-(3-thiotriphosphate)]. Reactions were incubated for 50 min at 37° C., and resolved, following addition of a sample buffer on SDS-PAGE (10%). Gels were dried and proteins visualized via Phosphorimaging (Fuji, Japan).

DIAP1 [6] = experiment: In vitro ubiquitination reaction / self-conjugation of 35S-DIAP1; format: biochemical, Drosophila; settings: 35S-DIAP1 with E1 and ubiquitin
Experimental: as §1
^35S-methionine labeled mutant and wild type DIAP1, or wild type XIAP were generated in an in vitro transcription-translation system (Promega) from diap1-pET14b, diap1^21-4S pET14b and xiap pcDNA3.1 plasmids. For purification of His-UBCD1 and His-UBCH5C, ubcD1-pET14b and ubcH5C-pT7-7 were expressed in BL21 (pLysS) and purified on a Ni-column according to the manufacturer's protocol (Novagen). In vitro ubiquitination assays were carried out in a total volume of 12.5 μl and contained: ^35S-methionine labeled wild type or mutant DIAP1 or Wild type XIAP (approximately 10,000 cpm), and 250 ng E1 (made in baculovirus; vector is the kind gift of Dr. Kaznbiro Iwai, University of Osaka, Osaka Japan). […]
In order to determine whether both amino acid consensus sequences described above are essential for IAP degradation; peptides were generated, with amino acid sequences as described in Tables 1, 3 and 5 above, containing one of each amino acid consensus sequence, or both and their ability to stimulate in vitro IAP ubiquitination was assessed (FIG. 13). ^35S-methionine labeled wild type DIAP1 was incubated with 250 ng E1 and ubiquitin, with or without the addition of the RPR wild type protein, or peptides containing the RHG amino acid consensus sequence of the RPR HID or GRIM proteins, and the reaction products were resolved by SDS-PAGE.

T1 sequence (P98170 whole entry): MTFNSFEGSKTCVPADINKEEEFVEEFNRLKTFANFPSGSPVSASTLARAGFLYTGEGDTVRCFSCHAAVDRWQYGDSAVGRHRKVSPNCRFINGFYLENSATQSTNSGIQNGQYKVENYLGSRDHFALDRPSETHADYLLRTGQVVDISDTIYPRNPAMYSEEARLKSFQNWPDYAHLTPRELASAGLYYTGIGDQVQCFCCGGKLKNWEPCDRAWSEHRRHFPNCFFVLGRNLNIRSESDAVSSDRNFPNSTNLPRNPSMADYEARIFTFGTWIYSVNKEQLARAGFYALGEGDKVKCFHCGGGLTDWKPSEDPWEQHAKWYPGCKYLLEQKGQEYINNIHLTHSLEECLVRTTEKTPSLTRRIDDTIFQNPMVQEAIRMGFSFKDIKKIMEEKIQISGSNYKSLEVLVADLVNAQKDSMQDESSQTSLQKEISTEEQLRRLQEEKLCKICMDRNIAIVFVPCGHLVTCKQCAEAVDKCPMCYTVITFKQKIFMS

## AVAPYIPDQATLLR QWRFLATVVL (AVAFYIPDQATLLRQWRFLATVVL; Drosophila melanogaster) [Peptide R15W]
XIAP [1]
  XIAP self-conjugation in vitro: greatest effect

## His-UBCD1 (Drosophila ubiquitin conjugating enzyme UbcD1, purified from E. coli)
[2]
  in vitro ubiquitination of 35S-DIAP1 (E1, His-UBCD1, ubiquitin; SDS-PAGE, Phosphorimaging): Wild-type DIAP1 (lane 4) showed marked ubiquitination
[3]
  in vitro ubiquitination of 35S-DIAP1 (E1, His-UBCD1, ubiquitin; SDS-PAGE, Phosphorimaging): the His-DIAP1^21-4S mutant (RING domain mutant) did not (lane 7), in the presence of ubcD1

## AVPFYLPE QWRFLATVVL (AVPFYLPEQWRFLATVVL; Drosophila melanogaster) [Peptide H9-W]
XIAP [1]
  XIAP self-conjugation in vitro: greatest effect

B1: Reaper: Drosophila IAP inhibitor (IAPi) protein REAPER, wild type; used as protein or expressed from a transgene/plasmid (protein)
chain: MAVAFYIPDQATLLREAEQKEQQILRLRESQWRFLATVVLETLRQYTSCHPKTGRKSGKYRKPSQ
Diap1 in Cos-7 cells
  IAP (Diap1) protein level / half-life: dramatic reduction in detectable IAP protein
DIAP1 [4]; RING domain mutant background, diap1 33-1S and diap1 22-8S alleles
  DIAP1 downregulation in embryos: no longer able to downregalate DIAP1
DIAP1 [4]; expression under prd-Gal4 driver, wild type diap1
  DIAP1 protein levels in embryos: DIAP1 protein levels decrease
DIAP1 [4]; wing imaginal disc posterior compartment, co-expressed with p35 under en-Gal4
  diap1-lacZ expression: increased
DIAP1 [4]; wing imaginal disc posterior compartment, co-expressed with p35 under en-Gal4, compared to anterior compartment
  anti-DIAP1 labeling: reduced anti-DIAP1 labeling
XIAP [5]
  auto-ubiquitination of human XIAP: strongly stimulated
DIAP1 [6]
  IAP (DIAP1) self-conjugation / auto-ubiquitination in vitro: resulted in auto-ubiquitination
